Test results: patent publication US20150307625A1 (Bayer, published 2015)

T1: dog activated Protein C (dog, UniProt Q28278 43-456)
T1 construct: mature; also called dog aPC; dAPC
T1 sequence (looked up): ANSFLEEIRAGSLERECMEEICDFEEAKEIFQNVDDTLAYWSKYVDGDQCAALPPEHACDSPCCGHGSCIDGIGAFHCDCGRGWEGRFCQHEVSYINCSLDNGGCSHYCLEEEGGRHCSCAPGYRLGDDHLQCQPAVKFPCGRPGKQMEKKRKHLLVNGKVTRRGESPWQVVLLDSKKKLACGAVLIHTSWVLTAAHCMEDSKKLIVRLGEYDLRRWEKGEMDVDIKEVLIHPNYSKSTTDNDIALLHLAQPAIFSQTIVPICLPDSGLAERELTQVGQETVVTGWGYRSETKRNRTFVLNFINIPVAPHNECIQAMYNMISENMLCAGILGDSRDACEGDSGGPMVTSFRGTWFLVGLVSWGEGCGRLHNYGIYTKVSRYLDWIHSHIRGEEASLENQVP

T2: dog Protein C (zymogen) (dog, UniProt Q28278 43-456)
T2 construct: mature; also called dog PC
T2 sequence (looked up): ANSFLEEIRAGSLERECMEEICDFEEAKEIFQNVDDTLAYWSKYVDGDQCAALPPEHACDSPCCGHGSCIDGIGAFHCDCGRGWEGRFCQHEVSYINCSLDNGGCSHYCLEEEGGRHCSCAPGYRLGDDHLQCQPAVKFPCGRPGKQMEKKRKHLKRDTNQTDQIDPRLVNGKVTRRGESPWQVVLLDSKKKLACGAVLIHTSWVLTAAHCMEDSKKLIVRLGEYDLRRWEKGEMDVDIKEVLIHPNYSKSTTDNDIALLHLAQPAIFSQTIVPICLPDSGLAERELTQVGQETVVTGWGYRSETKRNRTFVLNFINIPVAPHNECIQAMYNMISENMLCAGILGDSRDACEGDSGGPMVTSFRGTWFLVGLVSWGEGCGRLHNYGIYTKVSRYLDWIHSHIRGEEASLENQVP

T3: mouse Protein C (zymogen) (mouse, UniProt P33587 42-460)
T3 construct: mature; also called mouse PC
T3 sequence (looked up): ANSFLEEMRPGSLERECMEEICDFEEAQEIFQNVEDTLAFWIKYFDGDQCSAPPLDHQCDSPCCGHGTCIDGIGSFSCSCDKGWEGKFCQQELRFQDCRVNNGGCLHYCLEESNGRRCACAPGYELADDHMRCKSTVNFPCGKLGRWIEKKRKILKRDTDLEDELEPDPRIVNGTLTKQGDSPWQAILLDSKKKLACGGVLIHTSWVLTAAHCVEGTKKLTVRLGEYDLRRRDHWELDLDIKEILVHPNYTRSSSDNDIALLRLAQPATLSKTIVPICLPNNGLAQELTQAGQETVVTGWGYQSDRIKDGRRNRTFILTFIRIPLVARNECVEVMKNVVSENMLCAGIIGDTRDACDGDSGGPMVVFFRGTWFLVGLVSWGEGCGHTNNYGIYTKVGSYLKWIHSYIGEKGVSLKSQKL

B1: R41C17 Fab (Fab, V domains shown)
VH: EVQLLESGGGLVQPGGSLRLSCAASGFTFSNYAMSWVRQSPGKGLEWVAVISYDGREKYYSDSVKGRFTISRDNSKNTLYLQMNSLRAEDTAVYYCARDRGRTFDYWGQGTLVTVTS
VL: LTQPPSASGTPGQRVTISCTGSSSNIGAGYVVHWYQQLPGTAPKLLIYRNNHRPSGVPDRFSGSKSGTSASLAISGLRSEDEADYYCAAWDDSLNGRVFGGGTKLTVLG
notes: Human Fab (lambda), expressed in E. coli; also called R4117
B2: C26B9 Fab (Fab, V domains shown)
VH: EVQLLESGGGLVQPGGSLRLSCAASGFTFSSYGMHWVRQAPGKGLEWVSVIYSGGSTYYADSVKGRFTISRDNSKNTLYLQMNSLRAEDTAVYYCARMGRAFDIWGQGTLVTVTS
VL: QSVLTQPPSASGTPGQRVTISCSGSSSNIRSNTVNWYQQLPGTAPKLLIYGNSNRPSGVPDRFSGSKSGTSASLAISGLRSEDEADYYCQSYDSSLSGDVVFGGGTKLTVLG
notes: Human Fab (lambda) from a phage library, expressed in E. coli
B3: C22J13 Fab (Fab, V domains shown)
VH: EVQLLESGGGLVQPGGSLRLSCAASGFTFSSNYMSWVRQAPGKGLEWVAVISYDGSNKYYADSVKGRFTISRDNSKNTLYLQMNSLRAEDTAMYYCALTGRSGWMRFPNWFDPWGQGTLVTVTS
VL: QSVLTQPPSASGTPGQRVTISCSGSDSNIGSNAVNWYQQLPGTAPKLLIYDNNKRPSGVPDRFSGSKSGTSASLAISGLRSEDEADYYCSSYTSSNTVVFGGGTKLTVLG
notes: as for B2
B4: C7A23 Fab (Fab, V domains shown)
VH: EVQLLESGGGLVQPGGSLRLSCAASGFTFGNHWMTWVRQAPGKGLEWVSGVSWNGSRTHYADSVKGRFTISRDNSKNTLYLQMNSLRAEDTAVYYCALTGRSGWMRFPNWFDPWGQGTLVTVTS
VL: QSVLTQPPSASGTPGQRVTISCSGSSSNIGNNYVSWYQQLPGTAPKLLIYRNNQRPSGVPDRFSGSKSGTSASLAISGLRSEDEADYYCQSYDSDLSGPYVLFGGGTKLTVLG
notes: as for B2
B5: T46P19 Fab (Fab, V domains shown)
VH: EVQLLESGGGLVQPGGSLRLSCAASGFTFSGYGMHWVRQAPGKGLEWVSGINWNGGSTGYADSVKGRFTISRDNSKNTLYLQMNSLRAEDTAVYYCARNRATRSGYYYFDSWGQGTLVTVTS
VL: LTQPPSASGTPGQRVTISCTGSSSNIGAGYDVHWYQQLPGTAPKLLIYGNINRPSGVPDRFSGSKSGTSASLAISGLRSEDEADYYCSSYTRSATLVFGGGTKLTVLG
notes: Human Fab (lambda), expressed in E. coli
B6: T46P19 hIgG1 (antibody, V domains shown)
VH: B5 VH
VL: B5 VL
B7: R41C17 hIgG1 (antibody, V domains shown)
VH: B1 VH
VL: B1 VL
B8: C26B9 hIgG1 (antibody, V domains shown)
VH: B2 VH
VL: B2 VL
B9: O3E7 hIgG1 (antibody, V domains shown)
VH: EVQLLESGGGLVQPGGSLRLSCAASGFTFSSYSMNWVRQAPGKGLEWVSAISGSGGSTYYADSVKGRFTISRDNSKNTLYLQMNSLRAEDTAVYYCARDRRVRGIYDAFDMWGQGTLVTVTS
VL: QSVLTQPPSTSGTPGQRVTISCTGSSSNIGAGFDVHWYQQLPGTAPKLLIYGNSNRPSGVPDRFSGSKSGTSASLAISGLRSEDEADYYCATWQDTLTGWMFGGGTKLTVLG
notes: also called O3E7-IgG; 03E7

What was measured:
[1] = biological target: T4, human activated Protein C (human, UniProt P04070 43-461); assay: direct ELISA, antigen coated, Fab
T4 construct: also called human aPC; hAPC

[2] = biological target: T4, human activated Protein C; assay: Biacore, Fab
dog activated Protein C [3] = biological target: T1, dog activated Protein C; assay: direct ELISA, antigen coated at 100 ng/well, Fab at 20 nM (1 ug/ml), anti-human Fab-HRP, AmplexRed (RFU)
Method: (§1) FIG. 3 depicts a graph characterizing anti-APC Fabs by direct ELISA. An ELISA plate was coated with human PC (hPC), human aPC (hAPC), dog aPC (dAPC), mouse aPC (mAPC) at 100 ng per well. Purified Fabs designate on the X-axis were added to the plate at 20 nM (1 ug/ml). Bound Fab was detected by the secondary antibody (anti-human Fab-HRP) followed by HRP substrate AmplexRed. The purified Fabs preferentially bind to human aPC and, with the exception of Fab R41C17, show little to no binding to human PC.
(§2) Antigens were coated directly on ELISA plates. Coating antigens included human PC (plasma-derived), human aPC (recombinant), dog aPC (plasma-derived), and mouse aPC (recombinant) at 100 ng/well in PBS/Ca buffer. After blocking the plate with 5% milk/PBS and washing the plate with PBS-Tween20, soluble Fabs (1 ug/ml, 20 nM) were added to the plate and incubated for 1 h at RT with shaking. Fab binding was detected with anti-human Fab (lambda) antibody-HRP and Amplex red as substrate. […] In contrast, R41C17 binds to both human APC and human PC. Also shown in FIG. 3 is cross-species reactivity of Fabs by ELISA.

dog Protein C (zymogen) = biological target: T2, dog Protein C (zymogen); assay: direct ELISA, dPC coated at 10 ug/ml, Fab at 20 nM, anti-human Fab-HRP, AmplexRed (RFU)
Method: (§3) To determine the binding selectivity of these fabs, their binding activities to the proenzyme human PC, to thrombin (FIIa), and to the activated Factor II (FIIa, thrombin), Factor VII (FVIIa), Factor IX (FIXa), and Factor X (FXa) were also assessed by ELISA. Briefly, an ELISA plate was coated with human aPC at 1 ug/ml, mouse PC at 10 ug/ml, dog PC at 10 ug/ml, other coagulation factors (FIIa, FVIIa, FIXa, FXa) at 5-10 ug/ml. Anti-aPC Fabs were added to the wells at 20 nM (1 ug/ml). Bound Fabs were detected by the secondary antibody (anti-human Fab-HRP) followed by HRP substrate AmplexRed.

[4] = biological target: T3, mouse Protein C (zymogen); assay: direct ELISA, mPC coated at 10 ug/ml, Fab at 20 nM, anti-human Fab-HRP, AmplexRed (RFU)
Method: as §3

[5] = biological target: T5, human Protein C (zymogen) (human, UniProt P04070 43-461); assay: direct ELISA, antigen coated at 100 ng/well, Fab at 20 nM (1 ug/ml), anti-human Fab-HRP, AmplexRed (RFU)
T5 construct: also called human PC; hPC
Method: as §1, §2

dog activated Protein C [6] = biological target: T1, dog activated Protein C; assay: direct ELISA, antigen coated, Fab
dog activated Protein C [7] = biological target: T1, dog activated Protein C; assay: Biacore, Fab
[8] = biological target: T4, human activated Protein C; assay: direct ELISA, aPC coated, hIgG1
[9] = biological target: T5, human Protein C (zymogen); assay: direct ELISA, antigen coated at 1 ug/ml, IgG at 20 nM, anti-human IgG-HRP, AmplexRed (RFU)
dog activated Protein C [10] = biological target: T1, dog activated Protein C; assay: as above

Binder	EC50 [1]	Kd [2]	binding result (dog activated Protein C [3])	binding result (dog Protein C (zymogen))	binding result [4]	binding result [5]	EC50 [8]	binding result (dog activated Protein C [10])	other results
B1	8.6 nM	4.8 nM	no binding (tested: 20 nM)	no binding (tested: 20 nM)	no binding (tested: 20 nM)				
B2	10.3 nM	7.9 nM	no binding (tested: 20 nM)	no binding (tested: 20 nM)	no binding (tested: 20 nM)	no binding (tested: 20 nM)			
B3	10.6 nM	16 nM			no binding (tested: 20 nM)	no binding (tested: 20 nM)			
B4				no binding (tested: 20 nM)	no binding (tested: 20 nM)				EC50 (dog activated Protein C [6]): 6 nM; Kd (dog activated Protein C [7]): 1.3 nM
B5	10.3 nM	7.2 nM	no binding (tested: 20 nM)	no binding (tested: 20 nM)	no binding (tested: 20 nM)	no binding (tested: 20 nM)			
B6							0.37 nM	no binding (tested: 20 nM)	binding result [9]: no binding (tested: 20 nM)
B7							0.55 nM	no binding (tested: 20 nM)	
B8							0.65 nM	no binding (tested: 20 nM)	binding result [9]: no binding (tested: 20 nM)
B9							16.9 nM		
